± gives the uncertainty stated by the source.
Assay: self-splicing fitness, log relative to wild type (ln ratio); higher = more splicing; Tetrahymena group I intron in knt gene, E. coli kanamycin selection, DiMSum; sequences stand for … in CUCUCU…GGAGGGAAAAGUUAUCAGGCAUGCACCUGGUAGCUAGUCUUUAAACCAAUAGAUUGCAUCGGUUUAAAAGGCAAGACCGUCAAAUUGCGGGAAAGGGGUCAACAGCCGUUCAGUACCAAGUCUCAGGGGAAACUUUGAGAUGGCCUUGCAAAGGGUAUGGUAAUAAGCUGACGGACAUGGUCCUAACCACGCAGCCAAGUCCUAAGUCAACAGAUCUUCUGUUGAUAUGGAUGCAGUUCACAGACUAAAUGUCGGUCGGGGAAGAUGUAUUCUUCUCAUAAGAUAUAGUCGGACCUCUCCUUAAUGGGAGCUAGCGGAUGAAGUGAUGCAACACUGGAGCCGCUGGGAACUAAUUUGUAUGCGAAAGUAUAUUGAUUAGUUUUGGAGUACUCGUGGUCG
Method in brief: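 Library with all eight P1ex-region intron nucleotides randomised, intron inside the knt kanamycin-resistance gene on pET-22b(+), in E. coli BL21(DE3). Cells grew overnight at 37°C or 30°C on LB agar with or without 25 μg/mL kanamycin (plus 100 μg/mL carbenicillin, 50 μM IPTG, 0.2% rhamnose), in six replicate transformations. Pooled colonies were amplicon-sequenced on Illumina HiSeq 2500. DiMSum fitness is the error-weighted combination of wild-type-normalised replicate fold changes, kanamycin versus none.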

Sequence | self-splicing fitness (ln) (30 °C) | self-splicing fitness (ln) (37 °C)
CUGCAGCAAUAUUACGGUCG | -0.487 ± 0.077 | 0.0459 ± 0.09
CCGUAGCAAUAUUACGGCUA | -3.49 ± 0.34 | -3.04 ± 0.35
CUCCAGCAAUAUUACGCGUA | – | -2.56 ± 0.25
CGCGAGCAAUAUUACGCUUA | -2.27 ± 0.23 | -1.97 ± 0.24
GCAAAGCAAUAUUACGUGUA | -0.807 ± 0.071 | -0.701 ± 0.074
AAGCAGCAAUAUUACGUGCU | -3.6 ± 0.15 | -1.85 ± 0.11
CCAAAGCAAUAUUACGACAA | -2.42 ± 0.27 | -2.54 ± 0.28
AACGAGCAAUAUUACGGGUC | -3.17 ± 0.22 | -1.65 ± 0.2
AUAGAGCAAUAUUACGGAUG | -1.43 ± 0.12 | -2.91 ± 0.31
GGCCAGCAAUAUUACGGCGA | 0.0969 ± 0.095 | 0.581 ± 0.11
CGCUAGCAAUAUUACGAAAG | -1.17 ± 0.091 | -0.395 ± 0.1
UGCCAGCAAUAUUACGCAUC | -3.52 ± 0.25 | -2.2 ± 0.2
UAAGAGCAAUAUUACGGUGA | -3.83 ± 0.23 | -2.14 ± 0.16
GAUAAGCAAUAUUACGAGUG | -1.04 ± 0.074 | -0.835 ± 0.066
GGCUAGCAAUAUUACGAUUA | -0.803 ± 0.085 | -0.572 ± 0.079
ACGUAGCAAUAUUACGACCC | -0.864 ± 0.19 | 0.196 ± 0.22
UGGUAGCAAUAUUACGGAUA | -1.92 ± 0.24 | -2.72 ± 0.27
GAUCAGCAAUAUUACGAAAC | -0.961 ± 0.39 | 0.628 ± 0.41
CCGCAGCAAUAUUACGACGA | -0.105 ± 0.077 | -0.259 ± 0.084
GCGGAGCAAUAUUACGGAUG | -3.28 ± 0.17 | -1.67 ± 0.22
CUUUAGCAAUAUUACGAGGA | -2.59 ± 0.32 | -3.02 ± 0.4
UCCCAGCAAUAUUACGCCCG | -3.3 ± 0.21 | -2.65 ± 0.31
UGUAAGCAAUAUUACGUAAG | -1.86 ± 0.15 | -1.84 ± 0.11
GUCUAGCAAUAUUACGCGUU | -0.17 ± 0.063 | -0.000183 ± 0.069
CCAAAGCAAUAUUACGGGUG | -1.01 ± 0.053 | -0.233 ± 0.085

Sequence | self-splicing fitness (ln) (30 °C) | self-splicing fitness (ln) (37 °C)
UGACAGCAAUAUUACGAACA | -0.232 ± 0.081 | -0.06 ± 0.087
CUAUAGCAAUAUUACGGCGC | -2.5 ± 0.28 | –
UUGAAGCAAUAUUACGAAGA | -0.989 ± 0.11 | -0.181 ± 0.17
ACCCAGCAAUAUUACGGCUA | -0.684 ± 0.1 | 0.23 ± 0.1
GUCCAGCAAUAUUACGUCCU | -1.77 ± 0.13 | -0.83 ± 0.12
AUCGAGCAAUAUUACGCCCG | -3.48 ± 0.36 | -0.807 ± 0.32
UCCUAGCAAUAUUACGCCAA | -3.18 ± 0.28 | -2.5 ± 0.25
AUGCAGCAAUAUUACGAUAA | -1.55 ± 0.1 | 0.424 ± 0.092
CUGCAGCAAUAUUACGAAUU | -3.62 ± 0.22 | -3.18 ± 0.43
GUGUAGCAAUAUUACGGCCA | 0.628 ± 0.35 | -0.349 ± 0.44
GGACAGCAAUAUUACGGCUC | 0.0372 ± 0.08 | 0.377 ± 0.11
UAUCAGCAAUAUUACGGCCG | -0.163 ± 0.11 | 0.391 ± 0.16
AACUAGCAAUAUUACGGGUG | -0.377 ± 0.049 | -0.0736 ± 0.07
UUAGAGCAAUAUUACGUACG | -0.844 ± 0.11 | -1.06 ± 0.17
CUUGAGCAAUAUUACGCCUC | – | -0.747 ± 0.3
UCGCAGCAAUAUUACGCGGU | -4.16 ± 0.24 | -2.41 ± 0.28
CACUAGCAAUAUUACGUGCG | -2.13 ± 0.081 | -0.945 ± 0.082
ACAUAGCAAUAUUACGGACA | -1.57 ± 0.16 | -0.382 ± 0.14
UAAAAGCAAUAUUACGCGAC | -3.73 ± 0.33 | -2.64 ± 0.24
GCGUAGCAAUAUUACGUUUG | -3.14 ± 0.21 | -1.37 ± 0.15
UGAAAGCAAUAUUACGUACG | -0.177 ± 0.11 | 0.639 ± 0.13
GUUAAGCAAUAUUACGUCCG | -1.77 ± 0.17 | -0.533 ± 0.23
AUACAGCAAUAUUACGCAUC | -3.69 ± 0.16 | -2.8 ± 0.21
GAGGAGCAAUAUUACGCGCU | -3.28 ± 0.16 | -2.06 ± 0.16
GUUUAGCAAUAUUACGUGGC | -0.884 ± 0.32 | -1.46 ± 0.33

Sequence | self-splicing fitness (ln) (30 °C) | self-splicing fitness (ln) (37 °C)
UACUAGCAAUAUUACGGUCU | -1.3 ± 0.094 | -0.2 ± 0.13
AUAAAGCAAUAUUACGUGAC | -2.94 ± 0.19 | -1.57 ± 0.18
CUAAAGCAAUAUUACGACUU | -3.45 ± 0.2 | -3.47 ± 0.39
GUAAAGCAAUAUUACGCUGU | -0.603 ± 0.083 | -1.16 ± 0.12
AGGCAGCAAUAUUACGGUUA | -0.809 ± 0.077 | 0.285 ± 0.08
UGUUAGCAAUAUUACGCAAU | -4.18 ± 0.42 | -2.67 ± 0.27
UGACAGCAAUAUUACGUACC | -1.78 ± 0.12 | -0.302 ± 0.14
CUAUAGCAAUAUUACGCAGG | -2.75 ± 0.34 | –
GAGGAGCAAUAUUACGUUGU | – | -1.87 ± 0.33
CUAAAGCAAUAUUACGGGGG | -1.87 ± 0.13 | -1.15 ± 0.13
UACAAGCAAUAUUACGGAGC | -3.08 ± 0.21 | -2.78 ± 0.34
UCCUAGCAAUAUUACGAGGC | -2.31 ± 0.13 | -3.06 ± 0.26
GUGCAGCAAUAUUACGUAUG | -1.86 ± 0.13 | -1.1 ± 0.13
UCCUAGCAAUAUUACGGGAC | -3.32 ± 0.22 | -2.73 ± 0.2
UUCCAGCAAUAUUACGAGCG | -1.6 ± 0.096 | -1.26 ± 0.1
GGAAAGCAAUAUUACGGACA | -0.913 ± 0.092 | 0.104 ± 0.097
GAGGAGCAAUAUUACGGUAU | -2.88 ± 0.35 | -1.25 ± 0.45
GGGAAGCAAUAUUACGAGCA | -2.18 ± 0.32 | -0.522 ± 0.18
UCAUAGCAAUAUUACGUGGA | -2.02 ± 0.11 | -1.24 ± 0.093
ACGGAGCAAUAUUACGGAGG | -4.47 ± 0.46 | -1.69 ± 0.19
AAACAGCAAUAUUACGCCGA | -1.99 ± 0.087 | -1.35 ± 0.09
GGUCAGCAAUAUUACGGAUA | -0.579 ± 0.086 | 0.248 ± 0.11
CAUAAGCAAUAUUACGUAGG | -0.808 ± 0.066 | -0.719 ± 0.084
CCCGAGCAAUAUUACGAUGG | -3.39 ± 0.16 | -1.28 ± 0.13
AAUCAGCAAUAUUACGUGUA | -0.538 ± 0.058 | 0.135 ± 0.068

Sequence | self-splicing fitness (ln) (30 °C) | self-splicing fitness (ln) (37 °C)
AACAAGCAAUAUUACGGUAU | -1.61 ± 0.075 | -1.16 ± 0.098
UUGCAGCAAUAUUACGGCAC | -0.586 ± 0.17 | -0.741 ± 0.19
UACUAGCAAUAUUACGAGUG | -1.07 ± 0.083 | -0.536 ± 0.1
AUAAAGCAAUAUUACGGUAG | -2.82 ± 0.1 | -1.74 ± 0.12
AUCGAGCAAUAUUACGAGAA | – | -2.44 ± 0.34
UUUGAGCAAUAUUACGAUUG | -3.75 ± 0.47 | -2.41 ± 0.31
ACAAAGCAAUAUUACGCUGU | -2.48 ± 0.14 | -3.01 ± 0.27
AAGGAGCAAUAUUACGGGGG | -2.94 ± 0.19 | -0.0467 ± 0.21
ACGUAGCAAUAUUACGUGUG | -3.26 ± 0.14 | -3.01 ± 0.16
GUAGAGCAAUAUUACGUUUC | -1.87 ± 0.15 | -0.679 ± 0.17
CCCAAGCAAUAUUACGUGUU | -4.07 ± 0.18 | -2.46 ± 0.13
AAUGAGCAAUAUUACGAAGG | -2.56 ± 0.43 | -3.54 ± 0.43
CCCUAGCAAUAUUACGGUGG | -4.27 ± 0.29 | -1.93 ± 0.16
UUUUAGCAAUAUUACGUCAU | -3 ± 0.28 | -1.47 ± 0.29
UUGCAGCAAUAUUACGGUUG | -3.07 ± 0.15 | -2.04 ± 0.15
UAUAAGCAAUAUUACGACCG | -0.137 ± 0.12 | -0.1 ± 0.16
GCGCAGCAAUAUUACGGACU | -0.744 ± 0.12 | -0.35 ± 0.12
UGUAAGCAAUAUUACGAUGU | -3.26 ± 0.15 | -1.93 ± 0.21
GUAAAGCAAUAUUACGCUUA | -1.27 ± 0.11 | -0.77 ± 0.14
CCUGAGCAAUAUUACGCGAU | -3.71 ± 0.18 | -2.25 ± 0.14
UGAUAGCAAUAUUACGGGGU | -2.68 ± 0.21 | -2.35 ± 0.28
CAAAAGCAAUAUUACGGUCA | -1.83 ± 0.13 | 0.0762 ± 0.1

Source: the supplement of paper PMC7877785
